In PMC12222023 (Nature, 2024):
Changes are numbered by the printed parent chain.

B1: His-tagged TULP3, bacterially expressed (natural protein, human, UniProt O75386 1-442, looked up)
chain: MEASRCRLSPSGDSVFHEEMMKMRQAKLDYQRLLLEKRQRKKRLEPFMVQPNPEARLRRAKPRASDEQTPLVNCHTPHSNVILHGIDGPAAVLKPDEVHAPSVSSSVVEEDAENTVDTASKPGLQERLQKHDISESVNFDEETDGISQSACLERPNSASSQNSTDTGTSGSATAAQPADNLLGDIDDLEDFVYSPAPQGVTVRCRIIRDKRGMDRGLFPTYYMYLEKEENQKIFLLAARKRKKSKTANYLISIDPVDLSREGESYVGKLRSNLMGTKFTVYDRGICPMKGRGLVGAAHTRQELAAISYETNVLGFKGPRKMSVIIPGMTLNHKQIPYQPQNNHDSLLSRWQNRTMENLVELHNKAPVWNSDTQSYVLNFRGRVTQASVKNFQIVHKNDPDYIVMQFGRVADDVFTLDYNYPLCAVQAFGIGLSSFDSKLACE
B2: His-tagged TULP3(4G), bacterially expressed (natural protein, human, UniProt O75386 1-442, looked up)
chain: B1 chain with Y193G, P195G, K333G, P336G

Assays:
[1] = target: T1, His-tagged SIRT1(E230K), bacterially expressed (human, UniProt Q96EB6 1-747, E230K); assay: SEC
T1 sequence (looked up): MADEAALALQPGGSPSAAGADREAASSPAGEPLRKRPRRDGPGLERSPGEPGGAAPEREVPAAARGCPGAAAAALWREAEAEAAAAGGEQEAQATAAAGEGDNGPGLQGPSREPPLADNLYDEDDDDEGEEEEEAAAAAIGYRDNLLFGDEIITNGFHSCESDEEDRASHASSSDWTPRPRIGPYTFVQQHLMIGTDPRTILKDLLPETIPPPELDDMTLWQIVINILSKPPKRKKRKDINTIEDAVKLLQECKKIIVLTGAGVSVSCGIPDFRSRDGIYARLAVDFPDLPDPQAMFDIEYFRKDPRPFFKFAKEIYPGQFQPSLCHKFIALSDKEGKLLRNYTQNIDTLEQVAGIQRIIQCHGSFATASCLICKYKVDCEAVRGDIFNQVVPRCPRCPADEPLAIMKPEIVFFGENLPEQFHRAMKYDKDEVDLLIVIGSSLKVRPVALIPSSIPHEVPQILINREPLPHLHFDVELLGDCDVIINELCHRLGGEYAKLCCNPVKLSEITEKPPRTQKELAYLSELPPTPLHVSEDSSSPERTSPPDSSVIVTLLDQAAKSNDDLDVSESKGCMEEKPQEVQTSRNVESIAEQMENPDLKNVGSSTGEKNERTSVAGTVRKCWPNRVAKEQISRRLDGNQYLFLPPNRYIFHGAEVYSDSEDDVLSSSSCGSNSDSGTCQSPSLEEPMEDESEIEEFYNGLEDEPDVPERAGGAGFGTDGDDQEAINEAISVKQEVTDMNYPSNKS

[2] = target: T2, His-tagged SIRT1, bacterially expressed (human, UniProt Q96EB6 1-747); assay: SEC
T2 sequence (looked up): T1 sequence (looked up) with K230E

Binder | binding result [1] | binding result [2]
B1 | binds | 
B2 |  | binds
